The source of these data is patent US20200239573A1 (CRESCENDO BIOLOGICS, published 2020).

Assay [1] addresses T1, recombinant human PD-1 Fc chimera (human, UniProt Q15116 25-167).
T1 construct: Bought protein; also called human PD-1-huFc; huPD-1-Fc; not shown: human Fc
The experiment in a line: HTRF inhibition; strep-tagged PD-L1 vs PD-1-Fc. How it is done: All samples and reagents were prepared in HTRF assay buffer containing PBS, 0.1% (w/v) BSA and 0.4M Potassium Fluoride. […] Total binding controls containing periplasmic extract sample buffer and non-specific binding controls containing excess untagged competitor were set up on each plate for data normalisation. Time-resolved fluorescent emission at 620 nm and 665 nm was measured following excitation at 337 nm on the BMG PHERAstar plate reader. Data was expressed as a % of the total binding control (% control) after subtraction of the background signal determined from the non-specific binding control wells.
On the technique in general: In TR-FRET formats the signal depends on donor and acceptor labels being close together.

Assay [2] concerns the target T2, Strep tagged recombinant human PD-1 (human, UniProt Q15116 25-170, limits assumed).
T2 construct: the whole entry is named; also called strep tagged human PD-1; not shown: Strep tag
The experiment in a line: SPR Biacore T200, strep-tagged PD-1 amine-coupled, single cycle kinetics. As for the experimental part: Single cycle kinetics assays were used to study the interaction between human PD-1 with Humabody® on a Biacore T200 instrument (GE Healthcare). Strep tagged recombinant human PD-1 was amine coupled to one flow cell of a CM-5 chip to create a low density surface (14 RU) using standard Biacore reagents. For the reference flow cell, a blank immobilisation was carried out. A five-point, three-fold dilution series of each Humabody® was made with a top concentration of 25 nM. The binding kinetics were followed by flowing the Humabody® over the chip surface in HBS EP+ buffer at a flow rate of 30 μl/min. The contact time for each of the association steps was 180 seconds and the dissociation step was 3300 seconds. The data was fitted to a 1:1 binding model after double reference subtraction using the Biacore T200 Evaluation software.
Background: In SPR one partner is held on a chip, and binding of the other changes the refractive index at the surface.

Assay [3] has as its target T3, human PD-1 expressed on cells (CHO human PD-1 cells) (human, UniProt Q15116 21-288).
T3 construct: also called CHO TREX human PD-1 cell line; CHO PD-1
Put plainly: FMAT inhibition; 100 pM PD-L1-Fc on CHO human PD-1 cells. How it is done: All reagents and serially diluted VH were prepared in FMAT assay buffer. […] Plates were incubated for 2 hours at room temperature then fluorescence measured in the FL2 (502 nm-537 nm) and FL5 (677-800 nm) channels on the Mirrorball plate reader (TTP) following excitation at 488 nm and 640 nm. Data was expressed as a % of the total binding control (i.e. % control) after subtraction of the background signal determined from the non-specific binding control wells.

The target in assay [4] is T3, human PD-1 expressed on cells (CHO …). Put plainly: FMAT epitope competition on CHO human PD-1 cells; competitor 1 nM 1.1-Strep. How it is done:
For the epitope competition assay reagents were prepared in FMAT assay buffer. […] Plates were incubated for a minimum of 1.5 hours at room temperature then fluorescence measured in the FL2 (502 nm-537 nm) and FL5 (677-800 nm) channels on the Mirrorball plate reader (TTP) following excitation at 488 nm and 640 nm. Data was expressed as a % of the total binding control (i.e. % control) after subtraction of the background signal determined from the non-specific binding control wells.

Assay [5] concerns the target T1, recombinant human PD-1 Fc chimera. The experiment in a line: HTRF inhibition; biotinylated PD-L2-Fc vs Eu-cryptate PD-1-Fc.
For assay [6], the target named is T3, human PD-1 expressed on cells (CHO …). The experiment in a line: cell-based or functional assay.

T3 sequence (Q15116 21-288): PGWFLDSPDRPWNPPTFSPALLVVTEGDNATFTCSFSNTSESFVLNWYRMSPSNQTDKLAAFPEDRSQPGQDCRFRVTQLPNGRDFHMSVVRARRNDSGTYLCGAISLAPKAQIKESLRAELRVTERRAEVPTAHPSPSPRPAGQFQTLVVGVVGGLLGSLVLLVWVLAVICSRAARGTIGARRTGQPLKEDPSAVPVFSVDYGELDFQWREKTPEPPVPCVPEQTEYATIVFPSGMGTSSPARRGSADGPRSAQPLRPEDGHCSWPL
T1 sequence (Q15116 25-167 limits assumed, change not shown): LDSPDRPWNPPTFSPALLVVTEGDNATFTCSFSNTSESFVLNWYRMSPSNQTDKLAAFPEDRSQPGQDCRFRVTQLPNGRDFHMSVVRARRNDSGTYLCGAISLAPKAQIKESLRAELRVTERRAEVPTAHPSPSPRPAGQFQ
T2 sequence (Q15116 25-170 limits assumed): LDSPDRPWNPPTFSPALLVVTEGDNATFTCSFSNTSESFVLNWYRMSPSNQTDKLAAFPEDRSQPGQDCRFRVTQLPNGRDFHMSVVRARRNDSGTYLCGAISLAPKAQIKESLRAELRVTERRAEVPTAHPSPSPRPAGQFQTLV

B1: Humabody® 1.12 (VHH)
VHH: EVQLLESGGGVVKPGGSLRLSCAASGFTFSDYYMGWIRQAPGKGLEWISYISSSGSTIYYADSVKGRFTISRDNAKNSLYLQMNSLRAEDTAVYYCAREAPLRLGESPHDAFDIWGQGTMVTVSS
notes: human VH single domain antibody
In general, IC50 refers to the concentration that gives 50% inhibition. As to B1, in assay [1], the IC50 turned out to be 4.18 nM.

B2: Humabody® 1.15 (VHH)
VHH: QVQLVESGGGLVKPGGSLRLSCAASGFTFSDNSMSWIRQAPGKGLEWVSYISSSGSTIYYADSVKGRFTISRDNAKNSLYLQMNTLRAEDTAVYYCAKEAPLRLGESPHDAFDIWGQGTMVTVSS
notes: as for B1
On to B2, for which, in assay [1], the IC50 came to 3.78 nM.

B3: Humabody® 1.3 (VHH)
VHH: QVQLVESGGGLVKPGGSLRLSCAASGFTFSDYTMTWMRQAPGKGLEWVSYISTGGSIKYYTDSVKGRFTISRDNAKNSLYLQMNSLRADDTAVYYCAREAPLRLGESPHDAFDIWGQGTMVTVSS
notes: as for B1
On to B3, for which the IC50 in assay [1] was determined as 2.3 nM.

B4: Humabody® 1.96 (VHH)
VHH: EVQLVESGGGLVKPGGSLRLSCAASGFTFSDTSMTWMRQAPGKGLEWVSYISSGGGVKFYADSVKGRFTISRDNAKNSLYLQMNSLRAEDTAVYYCAREAPLRLGESPHDAFDISGQGTMVTVSS
notes: as for B1
The term Kd denotes the concentration at which binding is half-saturated. The koff is the rate constant with which the complex falls apart. For orientation: kon means the rate constant with which the complex forms. For the molecule B4, in assay [2], the Kd worked out at 0.08 nM, the koff was 0.00012 s⁻¹ and the kon came out at 1.52e+06 M⁻¹ s⁻¹. Also, the IC50 in assay [3] is 2.45 nM. For the same molecule, the IC50 in assay [4] was 1.6 nM.

B5: Humabody® 1.8 (VHH)
VHH: EVQLVESGGGLVKPGGSLRLSCAASGFTFSDYTMTWMRQAPGKGLEWVSYISTGGSIKYYTDSVKGRFTISRDNAKNSLYLQMNSLRAGDTAVYYCAREAPLRLGESPHDAFDIWGQGTMVTVSS
notes: as for B1
In the case of B5, the IC50 in assay [1] is 28.8 nM.

B6: Humabody® 1.6 (VHH)
VHH: EVQLLESGGGLVKPGGSLRLSCAASGFTFSDYTMTWMRQAPGKGLEWVSYISTGGTIKYYTDSVKGRFTISRDNAKNSLYLQMSSLRADDTAVYYCAREAPLRLGESPHDAFDIWGQGTMVTVSS
notes: as for B1
As for B6, the IC50 in assay [1] stood at 13.1 nM.

B7: Humabody® 1.5 (VHH)
VHH: EVQLVESGGGLVKPGGSLRLSCAASGFTFSDYTMTWMRQAPGKGLEWVSYISTGGNTKYYTDSVKGRFTISRDNAKNSLYLQMNSLRADDTAVYYCAREAPLRLGESPHDAFDIWGQGTMVTVSS
notes: as for B1
Consider B7, for which the IC50 in assay [1] worked out at 2.66 nM; in assay [5], 22 nM.

B8: Humabody® 1.95 (VHH)
VHH: EVQLVESGGGLVKPGGSLRLSCAASGFTFSDGSMTWMRQAPGKGLEWVSYISSGGGVKFYADSVKGRFTISRDNAKNSLYLQMNSLRAEDTAVYYCAREAPLRLGESPHDAFDISGQGTMVTVSS
notes: as for B1
Consider B8, for which the IC50 was 3.59 nM in assay [3] and 2 nM in assay [4].

B9: Humabody® 1.80 (VHH)
VHH: EVQLVESGGGLVKPGGSLRLSCAASGFTFSDSSMTWMRQAPGKGLEWVSYISSGGGVKFYADSVKGRFTISRDNAKNSLYLQMNSLRAEDTAVYYCAREAPLRLGESPHDAFDISGQGTMVTVSS
notes: as for B1
Take B9: in assay [2], the dissociation constant (Kd) is 0.0297 nM, the koff was found to be 5.2e-05 s⁻¹ and the kon worked out at 1.76e+06 M⁻¹ s⁻¹. Also, the IC50 in assay [3] stood at 1.82 nM.

B10: Humabody® 1.100 (VHH)
VHH: EVQLVESGGGLVKPGGSLRLSCAASGFTFSDLSMTWMRQAPGKGLEWVSYISSGGGVKFYADSVKGRFTISRDNAKNSLYLQMNSLRAEDTAVYYCAREAPLRLGESPHDAFDISGQGTMVTVSS
notes: as for B1
On to B10, for which the IC50 in assay [3] was 2.61 nM; in assay [4], 1.5 nM.

B11: Humabody® 1.14 (VHH)
VHH: EVQLVESGGGLVQPGRSLRLSCAASGFTFSDYTMTWMRQAPGKGLEWVSYISTGGTIKYYTDSVKGRFTISRDNAKNSLYLQMNSLRADDTAVYYCAREAPLRLGESPHDAFDIWGQGTMVTVSS
notes: as for B1
Regarding B11, the IC50 in assay [1] amounted to 28.5 nM.

B12: Humabody® 1.10 (VHH)
VHH: QVQLVESGGGLVKPGGSLRLSCAASGFTFSDYTMSWMRQAPGKGLEWISYISLGGNTKYYTDSVKGRFTISRDNAKNSLYLQMNSLRADDTAVYYCAREAPLRLGESPHDAFDIWGQGTMVTVSS
notes: as for B1
Consider B12, for which the IC50 in assay [1] was found to be 54.1 nM.

B13: Humabody® 1.98 (VHH)
VHH: EVQLVESGGGLVKPGGSLRLSCAASGFTFSDKSMTWMRQAPGKGLEWVSYISSGGGVKFYADSVKGRFTISRDNAKNSLYLQMNSLRAEDTAVYYCAREAPLRLGESPHDAFDISGQGTMVTVSS
notes: as for B1
Take B13: the “Reporter Assay EC50” value in assay [6] was found to be 6.5 nM. The IC50 in assay [3] worked out at 2.08 nM; in assay [4], 1.1 nM.

B14: Humabody® 1.93 (VHH)
VHH: EVQLVESGGGLVKPGGSLRLSCAASGFTFSDASMTWMRQAPGKGLEWVSYISSGGGVKFYADSVKGRFTISRDNAKNSLYLQMNSLRAEDTAVYYCAREAPLRLGESPHDAFDISGQGTMVTVSS
notes: as for B1
On to B14, for which the IC50 in assay [3] was 2.12 nM; in assay [4] it was 1.5 nM.

B15: Humabody® 1.99 (VHH)
VHH: EVQLVESGGGLVKPGGSLRLSCAASGFTFSDRSMTWMRQAPGKGLEWVSYISSGGGVKFYADSVKGRFTISRDNAKNSLYLQMNSLRAEDTAVYYCAREAPLRLGESPHDAFDISGQGTMVTVSS
notes: as for B1
As for B15, the “Reporter Assay EC50” value in assay [6] is 4.2 nM. Moreover, the IC50 was 1.86 nM in assay [3] and 1.4 nM in assay [4].

B16: Humabody® 1.11 (VHH)
VHH: EVQLLESGGGLVKPGGSLRLSCAASGFTFSDYDMTWIRQAPGKGQEWVSYISRGGSTKYYADSVKGRFTISRDNAKNSLYLQMNSLRAEDTAVYYCAREAPLRLGETPHDAFDIWGQGTMVTVSS
notes: as for B1
With B16, in assay [1], the IC50 turned out to be 5.16 nM.

B17: Humabody® 1.90 (VHH)
VHH: EVQLVESGGGLVKPGGSLRLSCAASGFTFSDVSMTWMRQAPGKGLEWVSYISSGGGVKFYADSVKGRFTISRDNAKNSLYLQMNSLRAEDTAVYYCAREAPLRLGESPHDAFDISGQGTMVTVSS
notes: as for B1
For B17, the IC50 in assay [3] was 3 nM; in assay [4], 1.6 nM.

B18: Humabody® 1.91 (VHH)
VHH: EVQLVESGGGLVKPGGSLRLSCAASGFTFSDQSMTWMRQAPGKGLEWVSYISSGGGVKFYADSVKGRFTISRDNAKNSLYLQMNSLRAEDTAVYYCAREAPLRLGESPHDAFDISGQGTMVTVSS
notes: as for B1
For B18, the results for the IC50 in assay [3] and in assay [4] were 3.56 nM and 1.4 nM, respectively.

B19: Humabody® 1.9 (VHH)
VHH: QVQLVESGGGLVKPGGSLRLSCAASGFTFGDYTMTWMRQAPGKGLEWVSYISTGGTIKYYTDSVKGRFTISRDNAKNSLYLQMDSLRADDTAVYYCAREAPLRLGESPHDAFDIWGQGTMVTVSS
notes: as for B1
For B19, the figures for the IC50 in assay [1] and in assay [5] were 0.913 nM and 7.5 nM, respectively.

B20: Humabody® 1.7 (VHH)
VHH: EVQLVESGGGLVKPGGSLRLSCAASGFTFSDYTMTWMRQAPGKGLEWVSYISTGGTIKYYTDSVKGRFTISRDNAKNSLYLQMNSLRADDTAVYYCAREAPLRLGESPHDAFDIWGQGTMVTVSS
notes: as for B1
Consider B20, for which the IC50 in assay [1] was 4.4 nM.

B21: Humabody® 1.4 (VHH)
VHH: QVQLVESGGGLVKPGGSLRLSCAASGFTFSDYYMIWMRQAPGKGLEWVSYISGGGTTKYYTDSVKGRFTISRDNAKNSLYLQMNSLRADDTAVYYCAREAPLRLGETPHDAFDIWGQGTMVTVSS
notes: as for B1
In the case of B21, the results for the IC50 in assay [1] and in assay [5] were 3.13 nM and 14 nM, respectively.

B22: Humabody® 1.97 (VHH)
VHH: EVQLVESGGGLVKPGGSLRLSCAASGFTFSDISMTWMRQAPGKGLEWVSYISSGGGVKFYADSVKGRFTISRDNAKNSLYLQMNSLRAEDTAVYYCAREAPLRLGESPHDAFDISGQGTMVTVSS
notes: as for B1
B22: the figures for the IC50 in assay [3] and in assay [4] were 3.32 nM and 1.7 nM, respectively.
